Reference: paper PMC9897464 (2022)

Legend:
[1] = target: biotinylated Cg1735ΔCD (residues 20 to 386) (Corynebacterium glutamicum ATCC13032); experiment: BLI; biotinylated Cg1735ΔCD immobilised on streptavidin biosensors; Cg1735CD 20 to 0.3125 μM or Cg1604 200 to 3.125 μM; 25 °C; HEPES 25 mM pH 7.5, NaCl 150 mM, glycerol 5%, BSA 1 mg/mL; steady-state, one-site model; apparent Kd
[2] = target: T1, biotinylated Cg1735ΔCD (residues 20 to 386) (Corynebacterium glutamicum ATCC13032, biotin (EZ-Link NHS-PEG4-Biotin, 20 molar excess; sites not stated)); experiment: BLI
T1 chain: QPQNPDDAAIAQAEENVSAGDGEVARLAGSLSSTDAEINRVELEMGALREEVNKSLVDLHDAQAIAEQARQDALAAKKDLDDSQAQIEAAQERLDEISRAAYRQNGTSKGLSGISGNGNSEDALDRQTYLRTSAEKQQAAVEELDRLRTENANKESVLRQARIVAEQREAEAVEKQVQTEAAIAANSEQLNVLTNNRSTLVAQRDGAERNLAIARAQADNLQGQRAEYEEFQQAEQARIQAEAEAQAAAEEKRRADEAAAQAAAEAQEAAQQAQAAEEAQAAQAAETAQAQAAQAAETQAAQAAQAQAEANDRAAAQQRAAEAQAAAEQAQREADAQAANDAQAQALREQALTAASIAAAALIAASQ

[3] = target: His_SUMO_Cg1735CC1 (CC1 domain, residues 20 to 238) (Corynebacterium glutamicum ATCC13032); experiment: BLI; His_SUMO_Cg1735CC1 immobilised on Ni-NTA biosensors; Cg1735CD 20 to 0.3125 μM; 25 °C; HEPES 25 mM pH 7.5, NaCl 150 mM, glycerol 5%, BSA 1 mg/mL; steady-state, one-site model; apparent Kd

Cg1604 (globular periplasmic domain, residues 36 to 295) (domain or fragment)
Kd [1]: 56 µM

B1: Cg1735CD (catalytic domain, residues 460 to 600) (domain or fragment)
chain: DRSAQIETVIARAMSQLGVQYAWGGGNANGPTLGIRDGGVADSYGDYNKVGFDCSGLTLYAFAGVGISLPHYTGYQYQHGTKVSPSEMQRGDLIFYGPGASQHVAIYLGDGQMIEAPNSGSVVKISPVRWSGMTESVVRLI
Kd [2]: 1.9 µM
Kd [3]: 1.2 µM
